This experiment deals with UBR4_(xtal) (UBR4 residues 4,730–5,183) (human) (UniProt Q5T4S7). Briefly: ITC; UBR4 construct in the cell (74 μM), UBE2A in the syringe at tenfold higher concentration; 25 °C; 0.4 µl then 13 injections of 3 µl; UBE2A into buffer subtracted; single site binding model.

This is an account of results in publication PMC10873205.

UBR4_(xtal) (UBR4 residues 4,730–5,183) (human), sequence (Q5T4S7 4730-5183): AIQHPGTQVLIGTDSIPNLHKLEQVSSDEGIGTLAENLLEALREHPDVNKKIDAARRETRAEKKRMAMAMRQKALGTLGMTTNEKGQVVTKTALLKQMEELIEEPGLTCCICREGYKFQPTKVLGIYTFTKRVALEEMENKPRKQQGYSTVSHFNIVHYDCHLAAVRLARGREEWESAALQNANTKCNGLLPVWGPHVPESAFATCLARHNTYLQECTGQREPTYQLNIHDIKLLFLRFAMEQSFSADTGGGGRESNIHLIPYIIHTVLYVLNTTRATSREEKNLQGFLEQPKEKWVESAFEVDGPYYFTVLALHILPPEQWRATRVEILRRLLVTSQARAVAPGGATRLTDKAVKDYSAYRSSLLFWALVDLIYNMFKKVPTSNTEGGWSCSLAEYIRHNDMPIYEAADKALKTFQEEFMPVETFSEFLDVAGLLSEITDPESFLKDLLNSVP
UBE2A, sequence (P49459 whole entry): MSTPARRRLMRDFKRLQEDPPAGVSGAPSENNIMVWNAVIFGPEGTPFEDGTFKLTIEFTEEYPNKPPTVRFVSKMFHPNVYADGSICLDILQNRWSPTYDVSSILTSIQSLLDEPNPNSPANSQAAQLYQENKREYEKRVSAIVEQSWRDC

For “UBE2A (from UniProt P49459 1-152) (enzyme)”, the dH was -13.9 kcal/mol.
